The record followed here is PMC9289880 (Journal of Medicinal Chemistry, 2022).

Bridges are numbered along the chain shown (N, C = ends).

This assay concerns the target KRAS^G12D (GDP) (UniProt P01116 1-189, G12D). In words: cell-based or functional assay.

Consider Ac-RRCPLYISYDPVCRR-NH2 (disulfide 3-13) [peptide 2 (KRpep-2)], for which the “KRAS^G12D SOS GNE IC50 (TR-FRET, SOS-catalysed Bodipy-GDP/GTP exchange)” value was found to be 54 nM.
